Experimental data: publication PMC7112233, “E2f5 is a versatile transcriptional activator required for spermatogenesis and multiciliated cell differentiation in zebrafish”

B1: dmc1 E2F site wild-type probe (dsDNA)
DNA 1: TGTCAACATACGATTGTGGCGCGAAATTTCTTTCAGC
DNA 2: GCTGAAAGAAATTTCGCGCCACAATCGTATGTTGACA
B2: dmc1 E2F site mutant probe (dsDNA)
DNA 1: TGTCAACATACGATTGTAAATTTAAATTTCTTTCAGC
DNA 2: GCTGAAAGAAATTTAAATTTACAATCGTATGTTGACA

Biological target: T1, E2f5 (zebrafish, UniProt A5WUE8 1-363)
T1 sequence: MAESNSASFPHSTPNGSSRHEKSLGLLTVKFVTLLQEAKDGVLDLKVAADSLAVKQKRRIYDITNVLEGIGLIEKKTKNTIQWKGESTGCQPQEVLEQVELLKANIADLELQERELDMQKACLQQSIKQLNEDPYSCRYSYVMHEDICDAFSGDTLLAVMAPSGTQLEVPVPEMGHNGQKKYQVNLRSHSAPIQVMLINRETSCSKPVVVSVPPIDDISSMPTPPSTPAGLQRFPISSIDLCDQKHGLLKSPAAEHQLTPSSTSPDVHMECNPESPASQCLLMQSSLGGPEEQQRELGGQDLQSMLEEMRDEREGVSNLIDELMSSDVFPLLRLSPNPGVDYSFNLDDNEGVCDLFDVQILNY
Assay: EMSA; 10 mM Tris-HCl pH 8.0, 50 mM NaCl, 1 mM MgCl2, 0.5 mM EDTA, 0.5 mM DTT, 4% glycerol; 3 ug protein, 1 ul annealed oligo (25 uM stock); 40 min room temperature; 6.5% native PAGE
Conditions: protein: recombinant; tags: His (pET30A, Ni-NTA purified); label: 5'-FAM; annealed with complementary oligonucleotide

Binder	binding result
B1	binds
B2	no binding
